Reference: paper PMC5114558, “Reader domain specificity and lysine demethylase-4 family function” (Nature Communications, 2016)

T1: H3 (17-32) K23me3 peptide, fluorescein-labelled, P68431
T1 chain: RKQLATKAARKSAPAT


Columns and labels:
[1] = target: T1, H3 (17-32) K23me3 peptide, …; experiment: fluorescence polarization; conditions: chain shown with the change
[2] = target: H3 (17-32) K23me3 peptide, fluorescein-labelled (UniProt P68431); experiment: fluorescence polarisation; fluorescein-labelled histone peptide 3 nM, KDM4 DTD titrated 0.1-100 μM; 30 mM HEPES, 150 mM NaCl pH 7.4, 0.01% Triton X-100

Kd [1]	Kd [2]	Binder
3.1 µM	–	KDM4A double tudor domain (KDM4A-DTD), HaloTag-tagged, wild type, O75164 N931D; D939R; D945R (protein) ALQSITAGQKVISKHKNGRFYQCEVVRLTTETFYEVDFDDGSFSRNLYPERIVSQDCLQFGPPAEGEVVQVRWTDGQVYGAKFVASHPIQMYQVEFEDGSQLVVKRDDVYTLDEELP
–	73.9 µM	KDM4A-DTD N931R (domain or fragment) ALQSITAGQKVISKHKNGRFYQCEVVRLTTETFYEVRFDDGSFSDNLYPEDIVSQDCLQFGPPAEGEVVQVRWTDGQVYGAKFVASHPIQMYQVEFEDGSQLVVKRDDVYTLDEELP
–	0.85 µM	KDM4A-DTD N931D (domain or fragment) ALQSITAGQKVISKHKNGRFYQCEVVRLTTETFYEVDFDDGSFSDNLYPEDIVSQDCLQFGPPAEGEVVQVRWTDGQVYGAKFVASHPIQMYQVEFEDGSQLVVKRDDVYTLDEELP
–	57.4 µM	KDM4A-DTD N940A (domain or fragment) ALQSITAGQKVISKHKNGRFYQCEVVRLTTETFYEVNFDDGSFSDALYPEDIVSQDCLQFGPPAEGEVVQVRWTDGQVYGAKFVASHPIQMYQVEFEDGSQLVVKRDDVYTLDEELP
–	285 µM	KDM4A-DTD Y973A (aromatic cage substitution) (domain or fragment) ALQSITAGQKVISKHKNGRFYQCEVVRLTTETFYEVNFDDGSFSDNLYPEDIVSQDCLQFGPPAEGEVVQVRWTDGQVAGAKFVASHPIQMYQVEFEDGSQLVVKRDDVYTLDEELP
